The results in this text go back to paper PMC11840927, “Frataxin Traps Low Abundance Quaternary Structure to Stimulate Human Fe–S Cluster Biosynthesis” (Biochemistry, 2025).

In this test the target is T1, NFS1(Δ1–55)-ISD11(S11A)-ACPec complex with N-terminal His6 tag on NFS1 (human | Escherichia coli, UniProt Q9Y697 56-457; Q9HD34 1-91; P0A6A8 1-78, S11A, covalently attached PLP | acyl-4′PPT (assumed mass 523 Da)).
T1 construct: NFS1, human cysteine desulfurase, Δ1–55 (residues 56 to the C-terminus); ISD11 (LYRM superfamily), human, S11A; Escherichia coli acyl-carrier protein (ACPec) associated with NFS1-ISD11; Used uniformly 14N or 15N labelled in the exchange experiments; Calculated masses excluded the N-terminal methionine if present; also called SDAec; His-tagged SDAec; not shown: His6, N-terminal, kept; copies: 2 + …
As to the kind of experiment: native MS; complexes formed before the exchange reaction: SDAec with ISCU2 (1:3) or ISCU2 and FXN (1:3:3), IscS with IscU (1:3), 30 min, room temperature, EMR Orbitrap. The settings on record: both partners purified.

B1: FXN (Δ1–81) (natural protein, human, UniProt Q16595 82-210, looked up)
chain: GTLGHPGSLDETTYERLAEETLDSLAEFFEDLADKPYTFEDYDVSFGSGVLTVKLGGDLGTYVINKQTPNKQIWLSSPSSGPKRYDWTGKNWVYSHDGVSLHELLAAELTKALKTKLDLSSLAYSGKDA
notes: frataxin (FXN), human, Δ1–81 (residues 82 to the C-terminus); also called frataxin
For the molecule B1, the binding result is listed as “binds”.

B2: ISCU2 (Δ1–35) (natural protein, human, UniProt Q9H1K1-1 36-167, looked up)
chain: HKKVVDHYENPRNVGSLDKTSKNVGTGLVGAPACGDVMKLQIQVDEKGKIVDARFKTFGCGSAIASSSLATEWVKGKTVEEALTIKNTDIAKELCLPPVKLHCSMLAEDAIKAALADYKLKQEPKKGEAEKK
notes: ISCU2, human Fe–S cluster scaffold protein, Δ1–35 (residues 36 to the C-terminus); Two constructs were made, ISCU2-TEV-GST and ISCU2-TEV-GST-His6; Residues of the TEV site may remain at the C-terminus after cleavage (surmised); also called scaffold protein; source: E. coli BL21(DE3), purified (GST column, TEV digestion, Ni-NTA, cation exchange, Sephacryl S100); not shown: GST, C-terminal, cleaved
On to B2, for which the binding result was “binds”.
